The target of series [1] is T1, CST g2.1 (human, UniProt Q2NKJ3;Q9H668;Q86WV5 1-1217;1-368;1-123, N981D;Y983A;CTC1:R978E). Kind of series: fluorescence anisotropy.
Series [2] deals with T2, CST g3.1 (human, UniProt Q2NKJ3;Q9H668;Q86WV5 1-1217;1-368;1-123, K1167E;CTC1:K1164E). Nature of the series: fluorescence anisotropy. On the technique in general: In fluorescence polarisation assays a small probe gives low polarisation when free and higher when bound to something large.
Series [3] deals with T3, CST g1.1 (human, UniProt Q2NKJ3;Q9H668;Q86WV5 1-1217;1-368;1-123, E951K;CTC1:Y949A). Nature of the series: fluorescence anisotropy.
In series [4] the target is CST g4.1 (negative control mutant) (human, UniProt Q2NKJ3;Q9H668;Q86WV5 1-1217;1-368;1-123, R744E;CTC1:K743E). Nature of the series: fluorescence anisotropy.
The target of series [5] is T1, CST g2.1. Nature of the series: EMSA. On the technique in general: A gel shift assay detects complexes by their altered migration in electrophoresis.
Series [6] deals with T3, CST g1.1. Kind of series: EMSA.
In series [7] the target is T2, CST g3.1. Nature of the series: EMSA.

T1 sequence (Q2NKJ3 whole entry N981D/Y983A, chain 1 of 3): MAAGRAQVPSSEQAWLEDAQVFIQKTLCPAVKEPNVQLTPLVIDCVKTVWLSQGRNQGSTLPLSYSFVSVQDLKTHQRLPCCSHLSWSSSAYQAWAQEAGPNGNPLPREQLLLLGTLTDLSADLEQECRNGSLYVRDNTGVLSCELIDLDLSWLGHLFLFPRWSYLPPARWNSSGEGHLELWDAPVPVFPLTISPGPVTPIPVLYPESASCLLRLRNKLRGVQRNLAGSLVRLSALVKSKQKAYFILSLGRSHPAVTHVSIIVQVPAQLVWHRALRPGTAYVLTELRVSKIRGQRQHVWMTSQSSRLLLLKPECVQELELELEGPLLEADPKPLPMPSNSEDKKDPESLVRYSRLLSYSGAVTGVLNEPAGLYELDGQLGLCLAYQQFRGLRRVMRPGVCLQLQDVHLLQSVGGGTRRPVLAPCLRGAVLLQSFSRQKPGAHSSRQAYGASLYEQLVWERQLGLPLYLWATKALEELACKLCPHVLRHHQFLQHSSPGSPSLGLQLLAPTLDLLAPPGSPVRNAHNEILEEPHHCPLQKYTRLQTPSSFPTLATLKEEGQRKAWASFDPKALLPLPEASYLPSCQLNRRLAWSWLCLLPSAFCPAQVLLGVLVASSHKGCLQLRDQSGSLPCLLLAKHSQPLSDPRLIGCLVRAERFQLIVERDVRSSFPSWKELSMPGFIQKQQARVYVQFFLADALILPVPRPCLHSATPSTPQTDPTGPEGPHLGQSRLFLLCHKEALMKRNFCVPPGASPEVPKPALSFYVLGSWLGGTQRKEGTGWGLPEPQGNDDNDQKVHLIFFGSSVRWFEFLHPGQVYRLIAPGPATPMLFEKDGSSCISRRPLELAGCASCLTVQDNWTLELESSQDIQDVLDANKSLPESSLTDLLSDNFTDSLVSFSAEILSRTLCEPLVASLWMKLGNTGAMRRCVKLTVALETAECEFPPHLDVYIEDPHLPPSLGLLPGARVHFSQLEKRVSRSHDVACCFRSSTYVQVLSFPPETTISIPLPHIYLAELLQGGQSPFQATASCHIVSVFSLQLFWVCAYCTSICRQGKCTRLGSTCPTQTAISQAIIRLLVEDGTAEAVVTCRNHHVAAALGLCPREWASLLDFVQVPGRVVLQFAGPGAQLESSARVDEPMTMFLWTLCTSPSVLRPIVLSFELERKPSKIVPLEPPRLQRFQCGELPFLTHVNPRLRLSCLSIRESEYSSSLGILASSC
T1 sequence (Q9H668 whole entry, stated change not applied, chain 2 of 3): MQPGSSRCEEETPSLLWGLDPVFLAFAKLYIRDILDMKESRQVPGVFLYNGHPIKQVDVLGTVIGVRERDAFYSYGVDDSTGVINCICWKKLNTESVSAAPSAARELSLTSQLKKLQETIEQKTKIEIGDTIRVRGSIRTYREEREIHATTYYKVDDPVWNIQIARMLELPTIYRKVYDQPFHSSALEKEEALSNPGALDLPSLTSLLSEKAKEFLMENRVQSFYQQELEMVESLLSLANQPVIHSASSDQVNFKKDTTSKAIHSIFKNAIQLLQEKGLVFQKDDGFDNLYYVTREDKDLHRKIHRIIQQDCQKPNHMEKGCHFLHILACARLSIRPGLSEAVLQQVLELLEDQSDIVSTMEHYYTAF
T1 sequence (Q86WV5 whole entry, stated change not applied, chain 3 of 3): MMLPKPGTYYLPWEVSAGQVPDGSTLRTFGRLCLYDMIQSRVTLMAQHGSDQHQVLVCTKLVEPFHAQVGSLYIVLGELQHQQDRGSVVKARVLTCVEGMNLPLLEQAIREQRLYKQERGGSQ
T3 sequence (Q2NKJ3 whole entry E951K, chain 1 of 3): as the sequence (Q2NKJ3 whole entry N981D/Y983A, chain 1 of 3) above, with E951K, D981N, A983Y counted along it
T3 sequence (Q9H668 whole entry, stated change not applied, chain 2 of 3): as the sequence (Q9H668 whole entry, stated change not applied, chain 2 of 3) above
T3 sequence (Q86WV5 whole entry, stated change not applied, chain 3 of 3): as the sequence (Q86WV5 whole entry, stated change not applied, chain 3 of 3) above
T2 sequence (Q2NKJ3 whole entry K1167E, chain 1 of 3): as the sequence (Q2NKJ3 whole entry N981D/Y983A, chain 1 of 3) above, with D981N, A983Y, K1167E counted along it
T2 sequence (Q9H668 whole entry, stated change not applied, chain 2 of 3): as the sequence (Q9H668 whole entry, stated change not applied, chain 2 of 3) above
T2 sequence (Q86WV5 whole entry, stated change not applied, chain 3 of 3): as the sequence (Q86WV5 whole entry, stated change not applied, chain 3 of 3) above
Chain of CST g4.1 (negative control mutant) (Q2NKJ3 whole entry R744E, chain 1 of 3): as the sequence (Q2NKJ3 whole entry N981D/Y983A, chain 1 of 3) above, with R744E, D981N, A983Y counted along it
Chain of CST g4.1 (negative control mutant) (Q9H668 whole entry, stated change not applied, chain 2 of 3): as the sequence (Q9H668 whole entry, stated change not applied, chain 2 of 3) above
Chain of CST g4.1 (negative control mutant) (Q86WV5 whole entry, stated change not applied, chain 3 of 3): as the sequence (Q86WV5 whole entry, stated change not applied, chain 3 of 3) above

B1: 3xTEL (FP) (ssDNA)
DNA: TTAGGGTTAGGGTTAGGG
A word on the Kd: it is a measure of binding affinity in units of concentration. A low value points to tighter binding. B1: the Kd was about 800 nM in series [1], about 420 nM in series [2], about 520 nM in series [3] and 2 ± 0.16 nM in series [4].

B2: 3xTEL (EMSA) (ssDNA)
DNA: TTAGGGTTAGGGTTAGGG
Consider B2, for which the equilibrium dissociation constant (Kd) was 210 ± 106 nM in series [5], 133 ± 73 nM in series [6] and 97 ± 27 nM in series [7].

For the origin of these results see article PMC8599947.
